Consider two molecules from US20240076412A1 (NATIONAL INSTITUTE OF BIOLOGICAL SCIENCES BEIJING, published 2024).

For one experiment, the target named is T1, mFcγRI.
T1 construct: Named singly only on the sheet; the text speaks of mFcγRs as a group; also called mouse Fcγ receptor I; one of the mFcγRs
T1 chain: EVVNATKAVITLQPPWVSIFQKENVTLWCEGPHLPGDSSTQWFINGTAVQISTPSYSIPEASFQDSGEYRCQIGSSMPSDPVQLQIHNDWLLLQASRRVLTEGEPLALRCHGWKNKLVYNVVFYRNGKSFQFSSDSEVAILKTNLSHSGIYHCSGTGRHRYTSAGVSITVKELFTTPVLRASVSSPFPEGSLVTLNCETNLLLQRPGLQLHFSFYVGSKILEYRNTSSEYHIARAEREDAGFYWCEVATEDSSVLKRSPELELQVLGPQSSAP
As to the kind of experiment: SPR (Biacore T200), antibody captured on the chip, serially diluted mFcγRI as analyte; concentrations not given.

For experiment [1], the target named is hCD47 protein (SPR analyte of Example 2) (human, UniProt Q08722 19-139, limits assumed). As to the kind of experiment: SPR, antibody captured by anti-human Fc antibodies on CM5 chip, hGPC3 injected first, then hCD47.
Chain of hCD47 protein (SPR analyte of Example 2) (Q08722 19-139 limits assumed): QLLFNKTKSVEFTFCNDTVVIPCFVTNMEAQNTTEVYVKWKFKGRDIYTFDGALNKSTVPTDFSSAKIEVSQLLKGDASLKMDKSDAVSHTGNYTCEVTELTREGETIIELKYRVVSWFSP
The target of another experiment is T2, hGPC3-ΔHS (human, UniProt P51654 25-559, limits assumed).
T2 construct: also called hGPC3-ΔHS protein
As to the kind of experiment: SPR (Biacore T200), IgG1 captured on protein A/G CM5 chip, antigen printed as human GPC3 (hGPC3-ΔHS by paragraph 180) as analyte.

Method for hGPC3-ΔHS: All SPR analyses were performed on a Biacore T200 instrument (Biacore, GE Healthcare). […] The association rates (Kₒₙ), dissociation rates (Koff), and affinity constants (KD) were calculated using BiacoreT200 evaluation software.

B1: GPC3/CD47-DANG (bispecific antibody)
heavy 1: QVQLVQSGAEVKKPGASVKVSCKASGYTFTDYEMHWVRQAPGQGLEWMGALDPKTGDTAYSQKFKGRVTLTADESTSTAYMELSSLRSEDTAVYYCTRFYSYTYWGQGTLVTVSSASTKGPSVFPLAPSSKSTSGGTAALGCLVKDYFPEPVTVSWNSGALTSGVHTFPAVLQSSGLYSLSSVVTVPSSSLGTQTYICNVNHKPSNTKVDKKAEPKSCDKTHTCPPCPAPELLGGPSVFLFPPKPKDTLMISRTPEVTCVVVAVSHEDPEVKFNWYVDGVEVHNAKTKPREEQYGSTYRVVSVLTVLHQDWLNGKEYKCKVSNKALPAPIEKTISKAKGQPREPQVYTLPPCRDELTKNQVSLWCLVKGFYPSDIAVEWESNGQPENNYKTTPPVLDSDGSFFLYSKLTVDKSRWQQGNVFSCSVMHEALHNHYTQKSLSLSPGK
light 1: DVVMTQSPLSLPVTPGEPASISCRSSQSLVHSNANTYLHWYLQKPGQSPQLLIYKVSNRFSGVPDRFSGSGSGTDFTLKISRVEAEDVGVYYCSQNTHVPPTFGQGTKLEIKRTVAAPSVFIFPPSDEQLKSGTASVVCLLNNFYPREAKVQWKVDNALQSGNSQESVTEQDSKDSTYSLSSTLTLSKADYEKHKVYACEVTHQGLSSPVTKSFNRGEC
heavy 2: QVQLQESGPGLVKPSETLSLTCTVSGDSINYHYWSWIRQPPGKGLEWIGYIYYSGSTTYNPSLKSRVTMSVDPSKNHFSLKLTSVTAADTALYFCARQRGAYDYWGQGTLVTVSSASVAAPSVFIFPPSDEQLKSGTASVVCLLNNFYPREAKVQWKVDNALQSGNSQESVTEQDSKDSTYSLSSTLTLSKADYEKHKVYACEVTHQGLSSPVTKSFNRGECDKTHTCPPCPAPELLGGPSVFLFPPKPKDTLMISRTPEVTCVVVAVSHEDPEVKFNWYVDGVEVHNAKTKPREEQYGSTYRVVSVLTVLHQDWLNGKEYKCKVSNKALPAPIEKTISKAKGQPREPQVCTLPPSRDELTKNQVSLSCAVKGFYPSDIAVEWESNGQPENNYKTTPPVLDSDGSFFLVSKLTVDKSRWQQGNVFSCSVMHEALHNHYTQKSLSLSPGK
light 2: DIQLTQSPSSVSASVGDRVTIACRASQDIGSRLVWYQQRPGKAPKLLIYAASSLQSGVPSRFSGSGSGTDFTLTISSLQPEDFATYYCQQSYSTPYSFGQGTKLEIKSSASTKGPSVFPLAPSSKSTSGGTAALGCLVKDYFPEPVTVSWNSGALTSGVHTFPAVLQSSGLYSLSSVVTVPSSSLGTQTYICNVNHKPSNTKVDKKAEPKSC
notes: also called GPC3/CD47 biAb Fc variant; GPC3/CD47-DANG variant
Consider B1, for which the binding result in the experiment with mFcγRI is recorded as “no binding”.

B2: GC33 (Codrituzumab), human IgG1 (antibody, V domains shown)
VH: QVQLVQSGAEVKKPGASVKVSCKASGYTFTDYEMHWVRQAPGQGLEWMGALDPKTGDTAYSQKFKGRVTLTADESTSTAYMELSSLRSEDTAVYYCTRFYSYTYWGQGTLVTVSS
VL: DVVMTQSPLSLPVTPGEPASISCRSSQSLVHSNANTYLHWYLQKPGQSPQLLIYKVSNRFSGVPDRFSGSGSGTDFTLKISRVEAEDVGVYYCSQNTHVPPTFGQGTKLEIK
notes: also called anti-GPC3 mAb
In the case of B2, in experiment [1], the binding result is reported as “no binding”. Further, in the experiment with hGPC3-ΔHS, binding was characterised by a dissociation constant (Kd) of 1.29 nM, the koff turned out to be 0.000275 s⁻¹ and the kon is 213000 M⁻¹ s⁻¹.
